Molecular target: constitutively activated LFA-1 expressed at a high level on a Jurkat T-lymphocyte cell line (human) (UniProt P20701)
Test: cell-based or functional assay

Chain of constitutively activated LFA-1 expressed at a high level on a Jurkat T-lymphocyte cell line (human) (P20701 26-1170, chain 1 of 2): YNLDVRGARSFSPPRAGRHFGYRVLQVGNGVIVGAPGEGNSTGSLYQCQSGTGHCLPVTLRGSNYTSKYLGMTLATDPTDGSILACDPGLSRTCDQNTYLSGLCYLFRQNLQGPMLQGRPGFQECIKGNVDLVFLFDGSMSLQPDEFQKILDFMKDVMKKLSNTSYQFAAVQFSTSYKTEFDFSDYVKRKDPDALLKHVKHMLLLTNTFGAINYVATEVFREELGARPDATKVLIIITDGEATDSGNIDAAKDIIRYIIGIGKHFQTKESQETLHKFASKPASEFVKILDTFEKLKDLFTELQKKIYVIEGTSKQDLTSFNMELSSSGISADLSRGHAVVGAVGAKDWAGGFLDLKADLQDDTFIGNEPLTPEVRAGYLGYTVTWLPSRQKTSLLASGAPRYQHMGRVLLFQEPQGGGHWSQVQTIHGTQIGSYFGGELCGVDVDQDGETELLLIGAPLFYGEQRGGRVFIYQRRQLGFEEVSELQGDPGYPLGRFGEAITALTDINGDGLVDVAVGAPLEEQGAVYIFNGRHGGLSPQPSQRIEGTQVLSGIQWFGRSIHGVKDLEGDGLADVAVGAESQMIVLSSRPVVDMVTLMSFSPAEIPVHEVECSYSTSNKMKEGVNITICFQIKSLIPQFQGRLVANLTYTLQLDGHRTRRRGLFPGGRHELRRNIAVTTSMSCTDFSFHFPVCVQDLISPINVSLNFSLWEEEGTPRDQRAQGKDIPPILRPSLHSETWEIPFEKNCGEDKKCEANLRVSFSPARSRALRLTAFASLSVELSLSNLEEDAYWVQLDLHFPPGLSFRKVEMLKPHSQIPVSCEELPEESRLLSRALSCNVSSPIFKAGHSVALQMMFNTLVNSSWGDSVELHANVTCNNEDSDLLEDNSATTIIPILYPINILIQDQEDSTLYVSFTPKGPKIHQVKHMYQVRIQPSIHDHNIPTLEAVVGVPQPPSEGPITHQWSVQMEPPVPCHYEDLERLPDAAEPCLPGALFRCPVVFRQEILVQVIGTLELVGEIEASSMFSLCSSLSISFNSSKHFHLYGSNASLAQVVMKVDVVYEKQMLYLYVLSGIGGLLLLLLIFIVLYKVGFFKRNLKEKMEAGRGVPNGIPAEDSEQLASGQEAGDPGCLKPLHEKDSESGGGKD
Chain of constitutively activated LFA-1 expressed at a high level on a Jurkat T-lymphocyte cell line (human) (P05107 23-769, chain 2 of 2, further chain): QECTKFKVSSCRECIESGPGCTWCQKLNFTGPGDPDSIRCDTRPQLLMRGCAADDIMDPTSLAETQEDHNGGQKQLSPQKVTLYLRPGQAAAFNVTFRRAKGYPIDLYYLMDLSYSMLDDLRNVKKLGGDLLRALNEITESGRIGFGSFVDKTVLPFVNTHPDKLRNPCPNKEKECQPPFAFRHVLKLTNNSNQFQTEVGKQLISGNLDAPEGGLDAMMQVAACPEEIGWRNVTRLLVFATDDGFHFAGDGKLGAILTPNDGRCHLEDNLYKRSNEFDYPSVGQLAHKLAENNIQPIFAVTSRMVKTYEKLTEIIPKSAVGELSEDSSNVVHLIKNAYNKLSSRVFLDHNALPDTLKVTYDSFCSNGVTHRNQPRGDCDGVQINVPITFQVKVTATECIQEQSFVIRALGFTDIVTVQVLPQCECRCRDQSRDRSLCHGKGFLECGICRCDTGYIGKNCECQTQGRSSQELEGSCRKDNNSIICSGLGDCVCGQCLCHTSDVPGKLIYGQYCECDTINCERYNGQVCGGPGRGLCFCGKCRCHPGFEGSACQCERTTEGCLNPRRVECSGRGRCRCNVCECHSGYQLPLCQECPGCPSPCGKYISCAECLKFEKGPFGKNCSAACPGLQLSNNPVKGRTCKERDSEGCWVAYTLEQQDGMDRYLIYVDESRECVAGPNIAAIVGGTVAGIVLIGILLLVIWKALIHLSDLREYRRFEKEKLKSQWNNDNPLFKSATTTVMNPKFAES

“Leukotoxin (LtxA) of Aggregatibacter actinomycetemcomitans strain NJ4500 (from UniProt P16462 1-1055)” gave a sensitivity to LtxA-mediated toxicity of 10 times.

From EP2488198B1
